Experimental data as given in the supplement of paper PMC9170038.

Tested on: MS2 coat protein
Test: apparent KD of MS2 coat protein; designed switch direction (-1 OFF switch, 1 ON switch): -1; higher = weaker reporter binding
Summary of the method: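 Stalled E. coli RNA polymerase transcribed designed RNA switches on Illumina chips, which were then titrated with SNAP-549-labelled MS2 coat protein, doubling from 0.7 or 1.5 nM to 3 µM. Steps lasted from 0.8–1.5 h at the lowest concentration to 10–20 min at the highest. The apparent KD is each design's median over clusters of curve-fitted normalised fluorescence.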

[1] = input ligand: microRNA oligo, concentration not stated

Sequence	apparent KD of MS2 coat protein (input ligand: FMN 200 uM) [nM]	apparent KD of MS2 coat protein [1] [nM]	apparent KD of MS2 coat protein (input ligand: none) [nM]	apparent KD of MS2 coat protein (Eterna round: R95, input ligand: microRNA oligo, concentration not stated) [nM]
UAAUUAAGUGUGAGGAUAUGCUGGUCCUUGGAUCAGCAGAAGGCACAUGAGGAUCACCCAUGUAAAUUAUUUAU [Mat - Exclusion 4 - JL Mod - D60] (Eterna round: R96, puzzle: Brourd's mod of Exclusion 4)	332	54	76.5	–
UAAUUAAGUGUGAGGAUAUGCUGGUCCUUGGAUCAGCAGAAGGCACAUGAGGAUCACCCAUGUAAAUUAUUUAU [Mat - Exclusion 4 - JL Mod - D60] (puzzle: Brourd's mod of Exclusion 4)	–	–	–	73.2
UAAUUAAUUAAUUAAUAAUACAUGAGGAUCACCCAUGUAGAUCCUACAUACAAGCUUUGUAGCUCGUCUUAUAAUUA [Stov1/3-A1] (Eterna round: R97, puzzle: Sensor, turn-off variant 1)	214	–	337	–
UAAUUAGACUCAGGAUAUUCGAAGAGAAGAGAGGAAGAAGGGAGGUGACAUGAGGAUCACCCAUGUAUGUGUUGUGUCCAUGUG [Exclusion NG 1 S1] (Eterna round: R96, puzzle: Exclusion NG 1)	326	553	617	–
UAAUUAGCAAGUAGAUCCGACAUGAGGAUCACCCAUGUUAUCUGAAAGAACGCAGAAUAACUGUGAGCUCGUCUAAA [Sensor-V1 #1] (Eterna round: R97, puzzle: Sensor, turn-off variant 1)	315	–	333	–
UAAUUGAUUAAUAAAUUAUACAUGAGGAUCACCCAUGUAGAUCCUACGUGCCAUUUAAGUAGCUCGUCUUAUUAUUA [Sensor-V1 #64] (Eterna round: R97, puzzle: Sensor, turn-off variant 1)	142	–	228	–
UAAUUGAUUAAUAGAUUAUACAUGAGGAUCACCCAUGUAGGUCCUACGUGCCAUUUAAGUAGCUCGUCUUAUUAUUA [Sensor-V1 #66] (Eterna round: R97, puzzle: Sensor, turn-off variant 1)	40.2	–	46.5	–
UAAUUGUGAGGAUAUUCGUUGUUCUCGGAGACGAGAAUAACGGAGAAGGCACAUGAGGAUCACCCAUGUUCCUU [Mat - Exclusion 4 - JL Mod - D13] (Eterna round: R97, puzzle: Exclusion 4)	98.4	–	18	–
UACAAGCUUUAAAGAUCCUACAUGAGGAUCACCCAUGUGCUCGUCUUAUAACGUACUGUGACGAAAGUCACGGUACG [JL TOV1 3.20] (Eterna round: R97, puzzle: Sensor, turn-off variant 1)	200	–	246	–
UACAAGCUUUUAAGAUCCCACAUGAGGAUCACCCAUGUGCUCGUCUUGUAACGUACUGUGACGAAAGUCACGGUACG [JL TOV1 3.23] (Eterna round: R97, puzzle: Sensor, turn-off variant 1)	26.7	–	27.5	–
UACACUGCAUGAGGAUCAAACAUGAGGAUCACCCAUGUAUAGCAAGCUUUUUGCGCGUCUUAUAAUUAUGUAGUGUA [Electric Eye 19 - Jieux - Sensor, turn-off variant 1] (Eterna round: R97, puzzle: Sensor, turn-off variant 1)	15.8	–	15.4	–
UACACUGCAUGAGGAUCAAACAUGAGGAUCACCCAUGUGUAGCAAGCUUUUUGCUCGUCUUAUAAUUAUGUAGUGUA [Electric Eye 11 - Jieux - Sensor, turn-off variant 1] (Eterna round: R97, puzzle: Sensor, turn-off variant 1)	14	–	12.1	–
UACAGACAUGAGGAUCACCCAUGUUAGGAUAUGCAGAACUCUACUCACGUGGCGUUUAGCAGAAGGAAUACGGG [Eternabot (L1) Solution 68] (Eterna round: R97, puzzle: Exclusion 1)	122	–	74.6	–
UACAGUCAUCCUUAUUGUUACAUGAGGAUCACCCAUGUUAGUAUAAUUAAGUUAUGUAAGUUUGUUGUUCGUUUUAU [JR_STOV1_v2_Sub075] (Eterna round: R97, puzzle: Sensor, turn-off variant 1)	81.9	–	84.6	–
UACAUGAGGAUCACCCAUGUCGGGUAAACGAAGGUUACUCAAGAGGAUAUAAAACCGAAAGGGUUUUAGAAGGCUUUUCCUCGA [Eternabot solution 27] (Eterna round: R96, puzzle: Exclusion NG 3)	92.3	46	86.7	–
UACAUGAGGAUCACCCAUGUUUUAUCAUGUGUAAUAAUAAUGUAGGAUAUGUAUUAUUUAUUUUAACAGAAGGACAAUAAUAAA [JMF's solution 1] (Eterna round: R96, puzzle: Exclusion NG 3)	279	265	362	–

Sequence	apparent KD of MS2 coat protein (input ligand: FMN 200 uM) [nM]	apparent KD of MS2 coat protein [1] [nM]	apparent KD of MS2 coat protein (input ligand: none) [nM]	apparent KD of MS2 coat protein (Eterna round: R95, input ligand: microRNA oligo, concentration not stated) [nM]
UACAUGAGGAUCACCCAUGUUUUGUCGUGUAUGGUACCCGUCUAGGAUAUCGUGUUAUUGGACCACGAGAAGGAGAGUAUCAAU [Excl-NG3-LRO02] (Eterna round: R96, puzzle: Exclusion NG 3)	42.6	20.3	31.7	–
UACAUGAGGAUCACCCAUGUUUUGUCGUGUAUGGUAUUUAUCUAGGAUAUCAAUCUAUUUAAUUAUGAGAAGGAGAAUAUUAAU [JMF's solution 53] (Eterna round: R96, puzzle: Exclusion NG 3)	37.2	32.5	39.3	–
UACAUGAGGAUCACCCAUGUUUUGUCGUGUAUGGUAUUUAUCUAGGAUAUCAAUCUAUUUAGUUAUGAGAAGGAGAAUAUUAAU [JMF's solution 54] (Eterna round: R96, puzzle: Exclusion NG 3)	39.1	29.9	37.8	–
UACAUGAGGAUCACCCAUGUUUUGUCGUGUAUGGUAUUUAUCUAGGAUAUCAAUGAAUUUAUUUAUGAGAAGGAGAAUAUUAAU [JMF's solution 37] (Eterna round: R96, puzzle: Exclusion NG 3)	–	30.7	–	–
UACAUGAGGAUCACCCAUGUUUUGUCGUGUAUGGUAUUUAUCUAGGAUAUCAAUUGAUUUAAUUAUGAGAAGGAGAAUAUUAAU [JMF's solution 61] (Eterna round: R96, puzzle: Exclusion NG 3)	–	29.3	–	–
UACAUGAGGAUCACCCAUGUUUUGUCGUGUAUGGUAUUUAUCUAGGAUAUCAAUUUAGUUAGUUAUGAGAAGGAGAAUAUUAAU [JMF's solution 76] (Eterna round: R96, puzzle: Exclusion NG 3)	48	21.1	43.8	–
UACAUGAGGAUCACCCAUGUUUUGUCGUGUAUGGUAUUUAUCUAGGAUAUCAAUUUAUUUAAUUAUGAGAAGGAGAAUAUUAAU [JMF's solution 21] (Eterna round: R96, puzzle: Exclusion NG 3)	36.3	27.7	34.7	–
UACAUGAGGAUCACCCAUGUUUUGUCGUGUAUGGUAUUUAUCUAGGAUAUCAGGUUAUUUAUUUAUGAGAAGGAGAAUAUUAAU [JMF's solution 25] (Eterna round: R96, puzzle: Exclusion NG 3)	33.3	37.5	34.3	–
UACAUGAGGAUCACCCAUGUUUUGUCGUGUAUGGUAUUUAUCUAGGAUAUCAGUUUAUUUAUUUAUGAGAAGGAGAAUAUUAAU [JMF's solution 7] (Eterna round: R96, puzzle: Exclusion NG 3)	28	22.4	32.7	–
UACAUGAGGAUCACCCAUGUUUUGUCGUGUAUGGUAUUUAUCUAGGAUAUCGAUUUAUUUAACCACGAGAAGGAGAGUAUCAAU [MOD Solution 21 by JMF] (Eterna round: R96, puzzle: Exclusion NG 3)	46.4	36.8	44.1	–
UACAUGAGGAUCACCCAUGUUUUGUCGUGUAUGGUAUUUAUCUAGGAUAUCGUUUUAUUUAACCACGAGAAGGAGAGUAUCAAU [MOD2 Solution 21 by JMF] (Eterna round: R96, puzzle: Exclusion NG 3)	–	33.9	39.7	–
UACAUGAGGAUCACCCAUGUUUUGUCGUGUUUGGUACCCGUUUAGGAUAUCGUGUUAUUGGACCGCGAGAAGGAGAGUAUCAUU [Excl-NG3-LRO06] (Eterna round: R96, puzzle: Exclusion NG 3)	32.2	18.4	39.9	–
UACAUGUGAGGAUAUUAGUAGUAAAUAAAUAAAAUUAUUACUGAGAAGGUACAUGAGGAUCACCCAUGUUCCUU [Salish 062 v23] (Eterna round: R97, puzzle: Exclusion 4)	17.5	–	12.7	–
UACCCGUGAGGAUAUAGAGUCCUACACAUGAGGAUCACCCAUGUCAGCCUUAUCGUGGAUCUAGAAGGCAUAAACG [Eternabot (L1) Solution 88] (Eterna round: R97, puzzle: Exclusion 5)	103	–	183	–
UACCUAUAGGUAGGAUAUCAUUGCGAUUAGCUAUGAGAAGGACCACAUGAGGAUCACCCAUGUCCUCCAAUUAACCGAAAGGUA [Fiskers ExNg1 - 2] (Eterna round: R96, puzzle: Exclusion NG 1)	77.3	39.7	50.4	–
